Legend:
4H3782-bN = biological target: T1, 4H3782-bN; test: two-hybrid library CCNG1;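 note: natural log of median RNA to DNA barcode read ratio; higher means stronger binding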
T1 chain: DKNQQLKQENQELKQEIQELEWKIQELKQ

4H3843-bN = biological target: T2, 4H3843-bN; test: two-hybrid library CCNG1;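 note: natural log of median RNA to DNA barcode read ratio; higher means stronger binding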
T2 chain: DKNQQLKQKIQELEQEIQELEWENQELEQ

4H3855-bN = biological target: T3, 4H3855-bN; test: two-hybrid library CCNG1;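 note: natural log of median RNA to DNA barcode read ratio; higher means stronger binding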
T3 chain: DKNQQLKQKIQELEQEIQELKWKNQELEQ

4H4001-bN = biological target: T4, 4H4001-bN; test: two-hybrid library CCNG1;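 note: natural log of median RNA to DNA barcode read ratio; higher means stronger binding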
T4 chain: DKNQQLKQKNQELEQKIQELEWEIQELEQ

4H454-bN = biological target: T5, 4H454-bN; test: two-hybrid library CCNG1;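 note: natural log of median RNA to DNA barcode read ratio; higher means stronger binding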
T5 chain: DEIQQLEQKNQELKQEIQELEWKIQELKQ

4H462-bN = biological target: T6, 4H462-bN; test: two-hybrid library CCNG1;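 note: natural log of median RNA to DNA barcode read ratio; higher means stronger binding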
T6 chain: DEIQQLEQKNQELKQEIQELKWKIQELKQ

4H568-bN = biological target: T7, 4H568-bN; test: two-hybrid library CCNG1
T7 chain: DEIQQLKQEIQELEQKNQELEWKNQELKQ

4H607-bN = biological target: T8, 4H607-bN; test: two-hybrid library CCNG1
T8 chain: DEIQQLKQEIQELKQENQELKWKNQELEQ

4H687-bN = biological target: T9, 4H687-bN; test: two-hybrid library CCNG1
T9 chain: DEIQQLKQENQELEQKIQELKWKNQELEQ

4H717-bN = biological target: T10, 4H717-bN; test: two-hybrid library CCNG1
T10 chain: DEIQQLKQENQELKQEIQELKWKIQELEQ

4H72-bN = biological target: T11, 4H72-bN; test: two-hybrid library CCNG1
T11 chain: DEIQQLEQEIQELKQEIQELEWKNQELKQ

4H754-bN = biological target: T12, 4H754-bN; test: two-hybrid library CCNG1
T12 chain: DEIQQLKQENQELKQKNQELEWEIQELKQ

4H797-bN = biological target: T13, 4H797-bN; test: two-hybrid library CCNG1
T13 chain: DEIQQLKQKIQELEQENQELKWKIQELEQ

4H883-bN = biological target: T14, 4H883-bN; test: two-hybrid library CCNG1
T14 chain: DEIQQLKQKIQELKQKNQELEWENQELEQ

4H908-bN = biological target: T15, 4H908-bN; test: two-hybrid library CCNG1
T15 chain: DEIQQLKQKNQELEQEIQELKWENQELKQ

4H918-bN = biological target: T16, 4H918-bN; test: two-hybrid library CCNG1
T16 chain: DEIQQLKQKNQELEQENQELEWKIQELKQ

4H953-bN = biological target: T17, 4H953-bN; test: two-hybrid library CCNG1
T17 chain: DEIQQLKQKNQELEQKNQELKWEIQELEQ

4H967-bN = biological target: T18, 4H967-bN; test: two-hybrid library CCNG1
T18 chain: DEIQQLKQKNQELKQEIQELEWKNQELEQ

APC3354-AA = biological target: T19, APC3354-AA; test: two-hybrid library CCmax
T19 chain: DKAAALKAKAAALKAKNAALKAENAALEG

APC3881-AA = biological target: T20, APC3881-AA; test: two-hybrid library CCmax; conditions: mean of both orientations
T20 chain: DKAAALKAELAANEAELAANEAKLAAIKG

APC4100-AA = biological target: T21, APC4100-AA; test: two-hybrid library CCmax; conditions: mean of both orientations
T21 chain: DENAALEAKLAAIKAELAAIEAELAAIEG

APC4336-AA = biological target: T22, APC4336-AA; test: two-hybrid library CCmax; conditions: mean of both orientations
T22 chain: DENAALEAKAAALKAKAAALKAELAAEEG

APC5009-AA = biological target: T23, APC5009-AA; test: two-hybrid library CCmax; conditions: mean of both orientations
T23 chain: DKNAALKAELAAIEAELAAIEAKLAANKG

APC542-AA = biological target: T24, APC542-AA; test: two-hybrid library CCmax; conditions: mean of both orientations
T24 chain: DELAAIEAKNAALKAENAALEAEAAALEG

APC5531-AA = biological target: T25, APC5531-AA; test: two-hybrid library CCmax; conditions: mean of both orientations
T25 chain: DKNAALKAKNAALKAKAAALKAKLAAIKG

APC6088-AA = biological target: T26, APC6088-AA; test: two-hybrid library CCmax; conditions: mean of both orientations
T26 chain: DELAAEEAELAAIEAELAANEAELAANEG

APC7524-AA = biological target: T27, APC7524-AA; test: two-hybrid library CCmax; conditions: mean of both orientations
T27 chain: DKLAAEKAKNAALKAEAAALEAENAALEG

APC8401-AA = biological target: T28, APC8401-AA; test: two-hybrid library CCmax; conditions: mean of both orientations
T28 chain: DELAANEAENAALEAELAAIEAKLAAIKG

APC8516-AA = biological target: T29, APC8516-AA; test: two-hybrid library CCmax; conditions: mean of both orientations
T29 chain: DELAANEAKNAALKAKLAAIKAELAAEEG

APC9141-AA = biological target: T30, APC9141-AA; test: two-hybrid library CCmax; conditions: mean of both orientations
T30 chain: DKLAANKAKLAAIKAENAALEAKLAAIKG

APC9182-AA = biological target: T31, APC9182-AA; test: two-hybrid library CCmax; conditions: mean of both orientations
T31 chain: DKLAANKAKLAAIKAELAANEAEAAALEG

APC9291-AA = biological target: T32, APC9291-AA; test: two-hybrid library CCmax; conditions: mean of both orientations
T32 chain: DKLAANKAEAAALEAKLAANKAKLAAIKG

APC9806-AA = biological target: T33, APC9806-AA; test: two-hybrid library CCmax; conditions: mean of both orientations
T33 chain: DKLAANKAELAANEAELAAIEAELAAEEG

O9 = biological target: T34, O9; test: two-hybrid library CCNG1
T34 chain: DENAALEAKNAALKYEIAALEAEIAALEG

## DKNQQLKQENQELKQEIQELEWKIQELKQ [4H3782-bN]
4H3782-bN
  interaction score: -1.91
4H3843-bN
  interaction score: 0.479
4H3855-bN
  interaction score: -1.08
4H4001-bN
  interaction score: 0.0598
4H454-bN
  interaction score: -0.771
4H462-bN
  interaction score: 0.194
4H568-bN
  interaction score: -0.456
4H607-bN
  interaction score: -0.461
4H687-bN
  interaction score: 0.28
4H717-bN
  interaction score: -0.43
4H72-bN
  interaction score: -0.393
4H754-bN
  interaction score: 0.109
4H797-bN
  interaction score: 0.0484
4H883-bN
  interaction score: -1.27
4H908-bN
  interaction score: 0.273
4H918-bN
  interaction score: -0.56
4H953-bN
  interaction score: -0.576
4H967-bN
  interaction score: -0.314

## DKAAALKAKAAALKAKNAALKAENAALEG [APC3354-AA]
APC3354-AA
  interaction score: -1.59
APC3881-AA
  interaction score: -1.72
APC4100-AA
  interaction score: -1.66
APC4336-AA
  interaction score: -2.08
APC5009-AA
  interaction score: -1.49
APC542-AA
  interaction score: -1.89
APC5531-AA
  interaction score: -1.92
APC6088-AA
  interaction score: -1.77
APC7524-AA
  interaction score: -1.71
APC8401-AA
  interaction score: -1.48
APC8516-AA
  interaction score: -1.98
APC9141-AA
  interaction score: -1.68
APC9182-AA
  interaction score: -1.72
APC9291-AA
  interaction score: -1.68
APC9806-AA
  interaction score: -1.33

## DENAALEAKNAALKYEIAALEAEIAALEG [O9]
O9
  interaction score: -2.24

Reference: article PMC10397247
